The record followed here is article PMC12521494.

Where “and” joins values, the source holds several entries; their conditions need not be identical. Equal entries are not always repeated.

This test deals with NbNRC2 (Nicotiana benthamiana). The test can be described thus: native gel or EMSA.

Broadly, the stoichiometry N is the number of molecules, sites or subunits per partner or assembly. Consider NbNRC2 (receptor), for which the stoichiometry N was 2 and 4.
